Consider 1 molecule from paper PMC5360572 (EBioMedicine, 2017).

Common to all, as to assay: SPR; BIAcore 3000, 25 °C; PD-L1-Ig or PD-L2-Ig immobilized on CM5 chip by amine coupling; soluble monomeric PD-1 or mutants (0.01–100 μM) injected at 20 μl/min; equilibrium Kd, 1:1 Langmuir model
What all share (details): both partners purified

Test [1] has as its target T1, mouse PD-L2 Ig fusion protein (mouse, UniProt Q9WUL5 20-221).
T1 construct: mouse PD-L2 part of a bought Ig fusion protein; also called mPD-L2; murine PD-L2-Ig; source: bought: R&D Systems
T1 sequence (looked up): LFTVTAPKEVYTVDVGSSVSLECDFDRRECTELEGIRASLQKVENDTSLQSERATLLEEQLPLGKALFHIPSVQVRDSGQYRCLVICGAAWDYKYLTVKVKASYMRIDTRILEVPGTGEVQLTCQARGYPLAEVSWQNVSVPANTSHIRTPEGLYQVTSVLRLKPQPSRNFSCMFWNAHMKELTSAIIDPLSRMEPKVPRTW

The target of test [2] is T2, human PD-L1 Ig fusion protein (human, UniProt Q9NZQ7 19-238).
T2 construct: characterized by SEC prior to use; detected on cells with anti-human IgG Fcγ-specific F(ab')2; also called huPD-L1; B7-H1; source: bought: R&D Systems

Test [3] has as its target T3, human PD-L2 Ig fusion protein (human, UniProt Q9BQ51 20-220).
T3 construct: characterized by SEC prior to use; also called huPD-L2; B7-DC; source: bought: R&D Systems
T3 sequence (looked up): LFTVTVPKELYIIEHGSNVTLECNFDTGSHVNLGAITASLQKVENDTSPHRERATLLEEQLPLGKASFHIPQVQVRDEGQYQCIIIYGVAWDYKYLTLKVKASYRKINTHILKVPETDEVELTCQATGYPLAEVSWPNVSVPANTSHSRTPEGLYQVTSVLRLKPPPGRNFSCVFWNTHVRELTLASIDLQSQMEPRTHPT

For test [4], the target named is T4, mouse PD-L1 Ig fusion protein (mouse, UniProt Q9EP73 19-239).
T4 construct: mouse PD-L1 part of a bought Ig fusion protein; also called mPD-L1; murine PD-L1-Ig; source: bought: R&D Systems

One may read the Kd as the free concentration of one partner at which half of the binding sites on the other are occupied at equilibrium, for simple one-to-one binding. Low readings indicate a tighter complex, high ones a looser complex.

T2 sequence (Q9NZQ7 19-238): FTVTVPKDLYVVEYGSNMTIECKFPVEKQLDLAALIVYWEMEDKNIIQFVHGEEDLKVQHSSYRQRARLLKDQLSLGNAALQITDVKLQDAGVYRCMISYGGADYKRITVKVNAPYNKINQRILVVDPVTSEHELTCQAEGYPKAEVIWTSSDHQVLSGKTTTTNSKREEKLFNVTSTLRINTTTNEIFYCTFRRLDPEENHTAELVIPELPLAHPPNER
T4 sequence (Q9EP73 19-239): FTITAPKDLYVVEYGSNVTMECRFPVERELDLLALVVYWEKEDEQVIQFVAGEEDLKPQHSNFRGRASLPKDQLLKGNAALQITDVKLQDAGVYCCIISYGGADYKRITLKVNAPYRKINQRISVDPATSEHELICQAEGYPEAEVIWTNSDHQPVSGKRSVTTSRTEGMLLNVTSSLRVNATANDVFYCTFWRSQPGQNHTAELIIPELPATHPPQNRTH

B1: mouse PD-1 A132L mutant (soluble, monomeric) (domain or fragment)
chain: SLTFYPAWLTVSEGANATFTCSLSNWSEDLMLNWNRLSPSNQTEKQAAFCNGLSQPVQDARFQIIQLPNRHDFHMNILDTRRNDSGIYLCGAISLHPKLKIEESPGAELVVTERILE
notes: the same molecule is used for the SPR analyte and for the crystallised complexes (PDB 3SBW, 3RNK, 3BP6); also called mA132L; mouse analog of A132L
For the molecule B1, the dissociation constant Kd in test [1] amounted to 470 nM; in test [2], 480 nM; in test [3] it was 1180 nM; in test [4], 2780 nM.
